Residue numbers refer to the chain shown, from its start. Names may count otherwise.
Tests used:
[1] = substrate: COc1cc(/C=C/CO)ccc1O; assay: Enzyme kinetics of MOMT9-1 (4-O-methylation of phenolic substrates); type: biochemical, C. breweri; conditions: other: MOMT9-1
Description: (§1) Further shaping of the substrate binding pocket targeting residues Thr-319, Ile-165, Leu-133 and Leu-143 by Iterative Saturation Mutagenesis using MOMT8-1 as the starting point lead to the generation of MOMT9-1 which carried all of the substitutions of MOMT8-1 and an additional substitution of Met for Thr at position 319. Thus MOMT9-1 is a specialized (iso)eugenol-4-O-methyltransferase (s-IEMT) having 6-fold higher specific activity with coniferyl alcohol as the substrate compared to its specific activity with sinapyl alcohol as substrate. The s-IEMT designated MOMT9-1 comprises a specialized (iso)eugenol-4-O-methyltransferase having the following substitutions: T133L/E165I/F175I/F166W/H169F/M26H/S30R/V33S/T319M where amine acid residue numbers correspond to those of SEQ ID NO. 1.
(§2) Each of the s-IEMTs was isolated following expression in bacterial cells of nucleic acid sequences encoding the enzymes. The isolated enzymes were analyzed for their substrate versatility, specificity and enzyme kinetics on various phenolic substrates.

[2] = substrate: COc1cc(/C=C/CO)cc(OC)c1O; assay: as above; type: biochemical, C. breweri; conditions: other: MOMT9-1
Description: as §1, §2

[3] = substrate: COc1cc(/C=C/CO)ccc1O; assay: Enzyme kinetics of MOMT-5 (4-O-methylation of phenolic substrates); type: biochemical, C. breweri; conditions: other: MOMT-5
Description: (§3) Starting with a modified (iso)eugenol-4-O-methyltransferase (m-IEMT) previously designated MOMT-5 having the five substitutions Leu for Thr at 133, Ile for Glu at 165, Ile for Phe at 175, Trp for Phe at 166 and Phe for His at 169 (T133L/E165I/F175I/F166W/H169F), where the amino acid residue numbers correspond to those for the C. breweri (iso)eugenol-4-O-methyltransferase protein (SEQ ID NO. 1), the synergistic effects of simultaneously modifying adjacent amino acids located in the substrate binding pocket have been explored. Specialized (iso)eugenol-4-O-methyltransferases (s-IEMTs) were generated that have relatively little activity on sinapyl alcohol compared to activity on p-coniferyl alcohol. Some species of s-IEMT have enhanced activity toward 4-O-methylation of ferulic acid. Additional species of s-IEMT have the capacity to generate iso-sinapyl alcohol. These s-IEMTs are useful for altering lignin precursors in plants, altering lignin composition in plants, and for producing potentially useful chemicals and chemical feedstock in plants as well as in different heterologous expression systems. […]
as §2
(§4) The specific activity of the various m-IEMT (MOMT-5) and s-IEMTs (MOMT8-2 and MOMT8-3) are shown in Table 4 and enzyme kinetic analysis is shown in Table 5.

[4] = substrate: COc1cc(/C=C/CO)cc(O)c1O; assay: as above; type: biochemical, C. breweri; conditions: other: MOMT-5
Description: as §3, §2, §4

[5] = substrate: COc1cc(/C=C/CO)cc(OC)c1O; assay: as above; type: biochemical, C. breweri; conditions: other: MOMT-5
Description: as §3, §2, §4

[6] = substrate: COc1cc(/C=C/CO)ccc1O; assay: Enzyme kinetics of MOMT8-2 (4-O-methylation of phenolic substrates); type: biochemical, C. breweri; conditions: other: MOMT8-2
Method: as §2
(§5) Iso-synapyl alcohol is thought to have the potential to be incorporated into lignin. These two additional specialized IEMT's having eight amino acid substitutions are designated as follows and have the indicated substitutions:
as §4

[7] = substrate: COc1cc(/C=C/CO)cc(O)c1O; assay: as above; type: biochemical, C. breweri; conditions: other: MOMT8-2
Method: as §2, §5, §4

[8] = substrate: COc1cc(/C=C/CO)cc(OC)c1O; assay: as above; type: biochemical, C. breweri; conditions: other: MOMT8-2
Method: as §2, §5, §4

[9] = Specific activity with 5-hydroxyl coniferyl alcohol (formation of iso-sinapyl alcohol); type: biochemical; conditions: substrate 5-hydroxyl coniferyl alcohol; product iso-sinapyl alcohol
Method: as §2
Iso-synapyl alcohol is thought to have the potential to be incorporated into lignin. These two additional specialized IEMT's having eight amino acid substitutions are designated as follows and have the indicated substitutions: […]

[10] = Specific activity with ferulic acid as the substrate; type: biochemical
Method: as §2

[11] = Enzyme kinetics, coniferyl alcohol as substrate; type: biochemical; conditions: coniferyl alcohol versus sinapyl alcohol
Method: as §2

[12] = substrate: COc1cc(/C=C/CO)ccc1O; assay: Enzyme kinetics of MOMT8-3 (4-O-methylation of phenolic substrates); type: biochemical, C. breweri; conditions: other: MOMT8-3
Method: as §2, §5, §4

[13] = substrate: COc1cc(/C=C/CO)cc(O)c1O; assay: as above; type: biochemical, C. breweri; conditions: other: MOMT8-3
Method: as §2, §5, §4

[14] = substrate: COc1cc(/C=C/CO)cc(OC)c1O; assay: as above; type: biochemical, C. breweri; conditions: other: MOMT8-3
Method: as §2, §5, §4

[15] = substrate: COc1cc(/C=C/CO)ccc1O; assay: Enzyme kinetics of MOMT8-1 (4-O-methylation of phenolic substrates); type: biochemical, C. breweri; conditions: other: MOMT8-1
Description: (§6) The first library examined amino acid substitutions at positions not previously explored, i.e., Met-26, Ser-30 and Val-33. The specialized (iso)eugenol-4-O-methyltransferase (s-IEMT) having all of the MOMT-5 substitutions and the additional substitution of His for Met at position 26, Arg for Ser at 30 and Ser for Val at 33 was designated MOMT8-1. The ratio of its activity for methylation of p-coniferyl alcohol versus methylation of p-sinapyl alcohol was 7.5:1 whereas the ratio of activity of MOMT-5 was about 4.2:1.
as §2

[16] = substrate: COc1cc(/C=C/CO)cc(OC)c1O; assay: as above; type: biochemical, C. breweri; conditions: other: MOMT8-1
Description: as §6, §2

B1: C. breweri (iso)eugenol-4-O-methyltransferase (SEQ ID NO. 1) variant MOMT9-1, T133L/E165I/F175I/F166W/H169F/M26H/S30R/V33S/T319M (Clarkia breweri; … (protein)
chain: STGNAEIQIIPTHSSDEEANLFAHQLARAASLPMALKAAIELDVLEIMAKSVPPSGYISPAEIAAQLPTTNPEAPVMLDRVLRLLASYSVVTYTLRELPSGKVERLYGLAPVCKFLTKNEDGVSLAPFLLLATDKVLLEPWFYLKDAILEGGIPFNKAYGMNIWDYFGTDHRINKVFNKGMSSNSTITMKKILEMYNGFEGLTTIVDVGGGTGAVASMIVAKYPSINAINFDLPHVIQDAPAFSGVEHLGGDMFDGVPKGDAIFIKWICHDWSDEHCLKLLKNCYAALPDHGKVIVAEYILPPSPDPSIATKVVIHMDALMLAYNPGGKERTEKEFQALAMASGFRGFKVASCAFNTYVMEFLKTA
Km [1]: 16.1 ± 1.4 µM
Vmax [1]: 88.4 ± 1.7 nmol/mg/min
kcat [1]: 0.063 ± 0.001 s⁻¹
Km [2]: 109.5 ± 4.0 µM
Vmax [2]: 24.2 ± 0.3 nmol/mg/min
kcat [2]: 0.017 ± 0.0002 s⁻¹

B2: C. breweri (iso)eugenol-4-O-methyltransferase (SEQ ID NO. 1) variant MOMT-5, T133L/E165I/F175I/F166W/H169F (Clarkia breweri; E165I/F166W/F175I/H169F/T133L) (protein)
chain: B1 chain with H24M, R28S, S31V, M317T
Km [3]: 11.4 ± 1.6 µM
Vmax [3]: 96.1 ± 3.8 nmol/mg/min
kcat [3]: 0.069 ± 0.009 s⁻¹
Km [4]: 105.0 ± 11.2 µM
Vmax [4]: 0.101 µmol/min/mg
kcat [4]: 0.072 ± 0.003 s⁻¹
kcat/Km [4]: 686 M⁻¹ s⁻¹
Km [5]: 14.7 ± 2.3 µM
Vmax [5]: 46.6 ± 1.5 nmol/mg/min
kcat [5]: 0.033 ± 0.001 s⁻¹

B3: C. breweri (iso)eugenol-4-O-methyltransferase (SEQ ID NO. 1) variant MOMT8-2, T133L/E165I/F175I/F166W/H169F/M26S/S30F/V33Y (Clarkia breweri; … (protein)
chain: B1 chain with H24S, R28F, S31Y, M317T
Km [6]: 15.9 ± 1.7 µM
Vmax [6]: 0.0322 µmol/min/mg
kcat [6]: 0.023 ± 0.001 s⁻¹
kcat/Km [6]: 1450 M⁻¹ s⁻¹
Km [7]: 57.9 ± 13.0 µM
Vmax [7]: 0.123 µmol/min/mg
kcat [7]: 0.088 ± 0.006 s⁻¹
kcat/Km [7]: 1520 M⁻¹ s⁻¹
Km [8]: 35.2 ± 9.8 µM
Vmax [8]: 0.0379 µmol/min/mg
kcat [8]: 0.027 ± 0.002 s⁻¹
kcat/Km [8]: 767 M⁻¹ s⁻¹

B4: MOMT-5: previously generated modified C. breweri (iso)eugenol-4-O-methyltransferase (m-IEMT), substitutions T133L/E165I/F175I/F166W/H169F (protein, UniProt O04385 3-368, looked up, variant T133L E165I F175I F166W H169F)
(Iso)eugenol …: B1 chain with H24M, R28S, S31V, M317T
Specific activity with 5-hydroxyl coniferyl alcohol, iso-sinapyl alcohol [9]: 43.5 ± 4.0 nmol/mg/min
Specific activity with ferulic acid as the substrate [10]: 7.84 nmol/min/mg
catalytic efficiency (kcat/Km) for coniferyl alcohol higher than for sinapyl alcohol [11]: less than 3 fold

B5: C. breweri (iso)eugenol-4-O-methyltransferase (SEQ ID NO. 1) variant MOMT8-3, T133L/E165I/F175I/F166W/H169F/M26S/S30F/V33G (Clarkia breweri; … (protein)
chain: B1 chain with H24S, R28F, S31G, M317T
Km [12]: 23.3 ± 2.4 µM
Vmax [12]: 0.0735 µmol/min/mg
kcat [12]: 0.053 ± 0.001 s⁻¹
kcat/Km [12]: 2270 M⁻¹ s⁻¹
Km [13]: 65.4 ± 13.0 µM
Vmax [13]: 0.145 µmol/min/mg
kcat [13]: 0.104 ± 0.006 s⁻¹
kcat/Km [13]: 1590 M⁻¹ s⁻¹
Km [14]: 35.9 ± 9.8 µM
Vmax [14]: 0.0515 µmol/min/mg
kcat [14]: 0.036 ± 0.003 s⁻¹
kcat/Km [14]: 1000 M⁻¹ s⁻¹

B6: C. breweri (iso)eugenol-4-O-methyltransferase (SEQ ID NO. 1) variant MOMT8-1, T133L/E165I/F175I/F166W/H169F/M26H/S30R/V33S (Clarkia breweri; … (protein)
chain: B1 chain with M317T
Km [15]: 16.1 ± 1.3 µM
Vmax [15]: 68.1 ± 1.6 nmol/mg/min
kcat [15]: 0.049 ± 0.001 s⁻¹
Km [16]: 26.3 ± 4.1 µM
Vmax [16]: 8.5 ± 0.3 nmol/mg/min
kcat [16]: 0.006 ± 0.000 s⁻¹

Reference: patent US20140370568A1, “Specialized (iso)eugenol-4-O-methyltransferases (s-IEMTs) and Methods of Making and Using the Same” (Brookhaven Science Associates, LLC, priority 2013, published 2014)
